The target in assay [1] is Bs-MotS_(68–242), periplasmic fragment of the stator B-subunit MotS from Bacillus subtilis (Bacillus subtilis). As to the kind of experiment: SEC; Superdex 75 10/300 GL, 20 mM Tris-HCl pH 8.0 with 300 mM NaCl, 0.6 mL/min; size markers ovalbumin (43 kDa) and IgG (158 kDa). On the technique in general: In gel filtration, larger molecules generally elute earlier.
For assay [2] the target is unchanged. As to the kind of experiment: SEC; Superdex 75 10/300 GL, 20 mM Tris-HCl pH 8.0 with 300 mM KCl (no Na+), 0.6 mL/min; size markers ovalbumin (43 kDa) and IgG (158 kDa).
For assay [3] the target is unchanged. As to the kind of experiment: crystal structure; protein purified in 300 mM NaCl; crystals from 20% PEG-8000, 0.1 M HEPES-NaOH pH 7.5, 293 K; soaked in 300 mM NaCl; 1.89 Å.
The target is the same in assay [4]. As to the kind of experiment: crystal structure; protein purified in 300 mM KCl; crystals from 40% PEG-300, 0.1 M Na2HPO4/citric acid pH 4.2, 293 K; soaked in 40 mM NaCl/300 mM KCl; 1.90 Å.
Assay [5] shares this target. As to the kind of experiment: crystal structure; protein purified in 150 mM NaCl; crystals from 1.26 M ammonium sulfate, 0.1 M HEPES-NaOH pH 7.5, 293 K; solution containing 92 mM NaCl; 1.89 Å.
Assay [6] addresses MotS_(68–242)(D70A) (Bacillus subtilis). As to the kind of experiment: SEC; Superdex 75 10/300 GL, 20 mM Tris-HCl pH 8.0 with 300 mM NaCl, 0.6 mL/min; size markers ovalbumin (43 kDa) and IgG (158 kDa).
Assay [7] addresses MotS_(68–242)(D70A/E75A) (Bacillus subtilis). The assay is described as above.
The target of assay [8] is MotS_(68–242)(E75A) (Bacillus subtilis). The description is as above.

Data on four substances can be found in PMC11853200.

Broadly, the stoichiometry N is the number of molecules, sites or subunits per partner or assembly.

On to “Bs-MotS_(68–242), periplasmic fragment of the stator B-subunit MotS from Bacillus subtilis (domain or fragment)”, for which the stoichiometry N in assay [1], in assay [2], in assay [3], in assay [4] and in assay [5] was 2 throughout.
On to “MotS_(68–242)(D70A) (domain or fragment)”, for which the stoichiometry N in assay [6] came to 2.
Consider “MotS_(68–242)(D70A/E75A) (domain or fragment)”, for which the stoichiometry N in assay [7] came to 2.
In turn, “MotS_(68–242)(E75A) (domain or fragment)” displayed a stoichiometry N in assay [8] of 2.
